From patent US20120316071A1 (published 2012)
One block for each binder: values may come before it.

What was measured:
[1] = target: T1, rHuman ErbB2/Fc Chimera, CF (R&D Systems Cat#1129-ER) (human, UniProt P04626 23-652); assay: ECL multispot (MSD) assay, antigen spotted on plate; blank spot of this row 327
T1 construct: Bought recombinant protein; also called human epidermal growth factor 2 receptor; Fc part of the bought chimera not given

[2] = target: T2, Recombinant Human DLL4 (R&D Systems Cat#1506-D4/CF) (human, UniProt Q9NR61 27-524); assay: as above
T2 construct: Bought recombinant protein; also called delta-like protein 4; rHuman DLL4

[3] = target: T3, rHuman HGF R/c-MET/Fc Chimera, CF (R&D Systems Cat#358-MT/CF) (human, UniProt P08581 25-932); assay: as above
T3 construct: Bought recombinant protein; also called HGF R/Fc; hepatocyte growth factor receptor; Fc part of the bought chimera not given

[4] = target: T4, rHuman Notch-1/Fc Chimera, CF (R&D Systems Cat#3647-TK) (human, UniProt P46531 19-526); assay: as above
T4 construct: Bought recombinant protein; Fc part of the bought chimera not given

[5] = target: T5, rHuman Erythropoietin R/Fc Chimera, CF (R&D Systems Cat#963-ER) (human, UniProt P19235 25-250); assay: as above
T5 construct: Bought recombinant protein; also called EPO R; EPO R/Fc; Fc part of the bought chimera not given
T5 sequence (looked up): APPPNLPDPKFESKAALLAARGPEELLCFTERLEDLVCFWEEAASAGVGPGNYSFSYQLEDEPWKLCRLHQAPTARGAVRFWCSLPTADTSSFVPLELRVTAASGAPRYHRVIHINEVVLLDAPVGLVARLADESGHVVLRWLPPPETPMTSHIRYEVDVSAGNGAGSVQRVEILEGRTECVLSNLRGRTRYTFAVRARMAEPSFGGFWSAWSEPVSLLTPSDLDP

[6] = target: T6, rHuman CD44/Fc Chimera, CF (R&D Systems Cat#3660-CD) (human, UniProt P16070 21-220); assay: as above
T6 construct: Bought recombinant protein; Fc part of the bought chimera not given

[7] = target: T7, rHuman EGF R/Fc Chimera, CF (R&D Systems Cat#344-ER) (human, UniProt P00533 25-645); assay: as above
T7 construct: Bought recombinant protein; also called epidermal growth factor receptor; Fc part of the bought chimera not given

[8] = target: T8, rHuman IGF-1 sR, (IGF-1 sR), CF (R&D Systems Cat#391-GR) (human, UniProt P08069 31-932); assay: as above
T8 construct: Bought recombinant soluble receptor; also called insulin-like growth factor-1 soluble receptor

[9] = target: T9, rHuman P-Cadherin/Fc Chimera, CF (R&D Systems Cat#861-PC) (human, UniProt P22223 108-654); assay: as above
T9 construct: Bought recombinant protein; Fc part of the bought chimera not given

[10] = target: T1, rHuman ErbB2/Fc Chimera, CF (R&D …); assay: ECL multispot (MSD) assay, antigen spotted on plate; blank spot of this row 278
[11] = target: T2, Recombinant Human DLL4 (R&D Systems …); assay: as above
[12] = target: T3, rHuman HGF R/c-MET/Fc Chimera, CF (R&D …); assay: as above
[13] = target: T4, rHuman Notch-1/Fc Chimera, CF (R&D …); assay: as above
[14] = target: T5, rHuman Erythropoietin R/Fc Chimera, CF …; assay: as above
[15] = target: T6, rHuman CD44/Fc Chimera, CF (R&D Systems …); assay: as above
[16] = target: T7, rHuman EGF R/Fc Chimera, CF (R&D …); assay: as above
[17] = target: T8, rHuman IGF-1 sR, (IGF-1 sR), CF (R&D …); assay: as above
[18] = target: T9, rHuman P-Cadherin/Fc Chimera, CF (R&D …); assay: as above
[19] = target: T1, rHuman ErbB2/Fc Chimera, CF (R&D …); assay: ECL multispot (MSD) assay, antigen spotted on plate; blank spot
[20] = target: T2, Recombinant Human DLL4 (R&D Systems …); assay: as above
[21] = target: T3, rHuman HGF R/c-MET/Fc Chimera, CF (R&D …); assay: as above
[22] = target: T4, rHuman Notch-1/Fc Chimera, CF (R&D …); assay: as above
[23] = target: T5, rHuman Erythropoietin R/Fc Chimera, CF …; assay: as above
[24] = target: T6, rHuman CD44/Fc Chimera, CF (R&D Systems …); assay: as above
[25] = target: T7, rHuman EGF R/Fc Chimera, CF (R&D …); assay: as above
[26] = target: T8, rHuman IGF-1 sR, (IGF-1 sR), CF (R&D …); assay: as above
[27] = target: T9, rHuman P-Cadherin/Fc Chimera, CF (R&D …); assay: as above
[28] = target: T1, rHuman ErbB2/Fc Chimera, CF (R&D …); assay: ECL multispot (MSD) assay, antigen spotted on plate; blank spot of this row 392
[29] = target: T2, Recombinant Human DLL4 (R&D Systems …); assay: as above
[30] = target: T3, rHuman HGF R/c-MET/Fc Chimera, CF (R&D …); assay: as above
[31] = target: T4, rHuman Notch-1/Fc Chimera, CF (R&D …); assay: as above
[32] = target: T5, rHuman Erythropoietin R/Fc Chimera, CF …; assay: as above
[33] = target: T6, rHuman CD44/Fc Chimera, CF (R&D Systems …); assay: as above
[34] = target: T7, rHuman EGF R/Fc Chimera, CF (R&D …); assay: as above
[35] = target: T8, rHuman IGF-1 sR, (IGF-1 sR), CF (R&D …); assay: as above
[36] = target: T9, rHuman P-Cadherin/Fc Chimera, CF (R&D …); assay: as above

T3 sequence (P08581 25-932, change not shown): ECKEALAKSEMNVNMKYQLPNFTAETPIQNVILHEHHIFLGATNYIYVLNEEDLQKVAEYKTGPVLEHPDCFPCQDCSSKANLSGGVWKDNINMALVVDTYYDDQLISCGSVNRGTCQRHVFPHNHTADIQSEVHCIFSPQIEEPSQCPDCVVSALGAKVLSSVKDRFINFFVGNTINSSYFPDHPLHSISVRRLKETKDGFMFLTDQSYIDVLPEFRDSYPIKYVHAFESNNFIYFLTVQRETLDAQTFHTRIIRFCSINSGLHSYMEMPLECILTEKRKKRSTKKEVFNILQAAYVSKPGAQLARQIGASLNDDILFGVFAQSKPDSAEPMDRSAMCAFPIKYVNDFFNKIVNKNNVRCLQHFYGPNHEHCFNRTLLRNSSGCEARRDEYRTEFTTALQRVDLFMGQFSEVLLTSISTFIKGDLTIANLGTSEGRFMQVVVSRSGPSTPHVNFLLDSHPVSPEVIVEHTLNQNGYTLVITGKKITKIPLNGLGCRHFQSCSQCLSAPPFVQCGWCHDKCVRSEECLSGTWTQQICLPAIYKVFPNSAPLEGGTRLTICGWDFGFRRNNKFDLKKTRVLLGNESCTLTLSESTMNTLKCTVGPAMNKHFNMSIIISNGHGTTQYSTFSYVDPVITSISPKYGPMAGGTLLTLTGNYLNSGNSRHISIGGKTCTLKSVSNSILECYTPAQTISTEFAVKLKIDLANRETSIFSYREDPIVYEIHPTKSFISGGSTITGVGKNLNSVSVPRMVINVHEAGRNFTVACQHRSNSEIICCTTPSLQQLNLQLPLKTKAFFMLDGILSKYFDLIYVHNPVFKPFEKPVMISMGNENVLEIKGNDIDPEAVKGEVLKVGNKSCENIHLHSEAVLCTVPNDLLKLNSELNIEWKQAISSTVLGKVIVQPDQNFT

ECL signal [1]: 340 | ECL signal [2]: 197000 | ECL signal [3]: 344 | ECL signal [4]: 326 | ECL signal [5]: 376 | ECL signal [6]: 411 | ECL signal [7]: 381 | ECL signal [8]: 354 | ECL signal [9]: 393
B1: Fab VH1-46_IGHD6-6*01_IGHJ1*01 S102A/S103P/S104F/H111F (APFF) & L6_IGKJ1*01 S30Q (Fab, V domains shown)
VH: QVQLVQSGAEVKKPGASVKVSCKASGYTFTSYYMHWVRQAPGQGLEWMGIINPSGGSTSYAQKFQGRVTMTRDTSTSTVYMELSSLRSEDTAVYYCAREEYAPFSAEYFQFWGQGTLVTVSS
VL: EIVLTQSPATLSLSPGERATLSCRASQSVQSYLAWYQQKPGQAPRLLIYDASNRATGIPARFSGSGSGTDFTLTISSLEPEDFAVYYCQQRSNWPPWTFGQGTKVEIKR
notes: Fab made in E. coli: VH cloned into Plasmid A (CH1, His6 and Flag tags), kappa VL into Plasmid C (kappa CL); also called APFF / S30Q

ECL signal [10]: 404 | ECL signal [11]: 189000 | ECL signal [12]: 452 | ECL signal [13]: 313 | ECL signal [14]: 525 | ECL signal [15]: 472 | ECL signal [16]: 395 | ECL signal [17]: 422 | ECL signal [18]: 442
B2: Fab VH1-46_IGHD6-6*01_IGHJ1*01 S102A/S103P/S104F/H111F (APFF) & L6_IGKJ1*01 S30R (Fab, V domains shown)
VH: QVQLVQSGAEVKKPGASVKVSCKASGYTFTSYYMHWVRQAPGQGLEWMGIINPSGGSTSYAQKFQGRVTMTRDTSTSTVYMELSSLRSEDTAVYYCAREEYAPFSAEYFQFWGQGTLVTVSS
VL: EIVLTQSPATLSLSPGERATLSCRASQSVRSYLAWYQQKPGQAPRLLIYDASNRATGIPARFSGSGSGTDFTLTISSLEPEDFAVYYCQQRSNWPPWTFGQGTKVEIKR
notes: Fab made in E. coli: VH cloned into Plasmid A (CH1, His6 and Flag tags), kappa VL into Plasmid C (kappa CL); also called APFF / S30R

ECL signal [19]: 279 | ECL signal [20]: 141000 | ECL signal [21]: 394 | ECL signal [22]: 294 | ECL signal [23]: 536 | ECL signal [24]: 375 | ECL signal [25]: 412 | ECL signal [26]: 365 | ECL signal [27]: 333
B3: Fab VH1-46_IGHD6-6*01_IGHJ1*01 S102A/S103P/S104F/H111F (APFF) & L6_IGKJ1*01 S30V (Fab, V domains shown)
VH: QVQLVQSGAEVKKPGASVKVSCKASGYTFTSYYMHWVRQAPGQGLEWMGIINPSGGSTSYAQKFQGRVTMTRDTSTSTVYMELSSLRSEDTAVYYCAREEYAPFSAEYFQFWGQGTLVTVSS
VL: EIVLTQSPATLSLSPGERATLSCRASQSVVSYLAWYQQKPGQAPRLLIYDASNRATGIPARFSGSGSGTDFTLTISSLEPEDFAVYYCQQRSNWPPWTFGQGTKVEIKR
notes: Fab made in E. coli: VH cloned into Plasmid A (CH1, His6 and Flag tags), kappa VL into Plasmid C (kappa CL); also called APFF / S30V

ECL signal [28]: 269 | ECL signal [29]: 136000 | ECL signal [30]: 320 | ECL signal [31]: 375 | ECL signal [32]: 470 | ECL signal [33]: 521 | ECL signal [34]: 383 | ECL signal [35]: 401 | ECL signal [36]: 418
B4: Fab VH1-46_IGHD6-6*01_IGHJ1*01 S102A/S103P/S104F/H111F (APFF) & L6_IGKJ1*01 S30T (Fab, V domains shown)
VH: QVQLVQSGAEVKKPGASVKVSCKASGYTFTSYYMHWVRQAPGQGLEWMGIINPSGGSTSYAQKFQGRVTMTRDTSTSTVYMELSSLRSEDTAVYYCAREEYAPFSAEYFQFWGQGTLVTVSS
VL: EIVLTQSPATLSLSPGERATLSCRASQSVTSYLAWYQQKPGQAPRLLIYDASNRATGIPARFSGSGSGTDFTLTISSLEPEDFAVYYCQQRSNWPPWTFGQGTKVEIKR
notes: Fab made in E. coli: VH cloned into Plasmid A (CH1, His6 and Flag tags), kappa VL into Plasmid C (kappa CL); also called APFF / S30T
